# Laboratory results as given in patent publication EP0980526B1 (IMPERIAL CANCER RESEARCH TECHNOLOGY LIMITED, dated 1998).
# T1: AAD-ER (acidic activation domain fused to the LBD of the wild-type ER) (human, UniProt P03372 282-595)
# T1 construct: range 282-595; Yeast two-hybrid prey; tested with or without 10^-7 M 17-beta-estradiol (E2); also called LBD of the ER; ER LBD
# T1 sequence (looked up): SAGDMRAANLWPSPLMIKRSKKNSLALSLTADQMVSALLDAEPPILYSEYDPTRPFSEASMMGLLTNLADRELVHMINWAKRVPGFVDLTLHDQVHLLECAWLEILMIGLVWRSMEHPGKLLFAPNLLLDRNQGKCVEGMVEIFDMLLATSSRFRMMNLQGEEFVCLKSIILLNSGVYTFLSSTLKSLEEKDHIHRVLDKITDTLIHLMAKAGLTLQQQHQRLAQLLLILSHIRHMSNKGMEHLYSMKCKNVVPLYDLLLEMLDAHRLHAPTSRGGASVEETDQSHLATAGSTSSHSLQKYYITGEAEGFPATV
# B1: DBD alone (other, human, UniProt P03372 176-282, looked up)
# chain: MESAKETRYCAVCNDYASGYHYGVWSCEGCKAFFKRSIQGHNDYMCPATNQCTIDKNRRKSCQACRLRKCYEVGMMKGGIRKDRRGGRMLKHKRQRDDGEGRGEVGS
# notes: Two-hybrid bait control without a motif
# Target: T1, AAD-ER (acidic activation domain fused …)
# Experiment: yeast two-hybrid
binder,measurement,value
B1,binding result,no binding
